In patent US8889419 (INDIANA UNIVERSITY RESEARCH AND TECHNOLOGY, dated 2014):

Columns and labels:
[1] = target: T1, integrin VLA-4 on HL60 cells (UniProt P13612 34-1032; P05556 21-798); assay: adhesion of HL60 cells (VLA-4 positive) to fragment-coated plates
T1 construct: whole, on cells; HL60 cells express VLA-4 but not VLA-5 by flow cytometry; also called CD49d

[2] = target: T1, integrin VLA-4 on HL60 cells; assay: adhesion of HL60 cells to fragment-coated plates

T1 sequence (P13612 34-1032, chain 1 of 2): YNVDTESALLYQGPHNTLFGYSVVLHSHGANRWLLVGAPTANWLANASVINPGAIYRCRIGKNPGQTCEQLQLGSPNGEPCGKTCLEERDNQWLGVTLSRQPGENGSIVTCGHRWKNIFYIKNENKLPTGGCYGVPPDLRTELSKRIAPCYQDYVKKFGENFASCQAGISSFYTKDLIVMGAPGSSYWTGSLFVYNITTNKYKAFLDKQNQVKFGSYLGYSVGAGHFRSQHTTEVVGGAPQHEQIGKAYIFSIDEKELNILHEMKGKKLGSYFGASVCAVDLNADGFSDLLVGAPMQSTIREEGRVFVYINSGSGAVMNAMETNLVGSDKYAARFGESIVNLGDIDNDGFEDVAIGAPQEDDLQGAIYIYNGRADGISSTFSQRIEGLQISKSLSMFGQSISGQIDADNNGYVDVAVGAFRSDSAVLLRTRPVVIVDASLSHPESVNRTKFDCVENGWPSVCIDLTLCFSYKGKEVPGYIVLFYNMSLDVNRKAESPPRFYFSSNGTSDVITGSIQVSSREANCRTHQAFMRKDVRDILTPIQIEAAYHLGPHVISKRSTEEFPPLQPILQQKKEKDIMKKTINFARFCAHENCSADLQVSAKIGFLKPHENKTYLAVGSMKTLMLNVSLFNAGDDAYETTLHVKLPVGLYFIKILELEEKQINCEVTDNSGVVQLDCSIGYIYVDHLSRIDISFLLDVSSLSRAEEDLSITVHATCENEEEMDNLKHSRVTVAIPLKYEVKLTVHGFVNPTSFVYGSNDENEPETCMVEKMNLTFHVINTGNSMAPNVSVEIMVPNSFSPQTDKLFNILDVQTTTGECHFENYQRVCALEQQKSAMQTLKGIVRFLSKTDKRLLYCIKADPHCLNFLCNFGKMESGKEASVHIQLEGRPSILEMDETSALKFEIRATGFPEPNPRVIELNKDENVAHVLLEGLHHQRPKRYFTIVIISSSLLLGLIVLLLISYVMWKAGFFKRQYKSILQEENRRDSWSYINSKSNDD
T1 sequence (P05556 21-798, chain 2 of 2): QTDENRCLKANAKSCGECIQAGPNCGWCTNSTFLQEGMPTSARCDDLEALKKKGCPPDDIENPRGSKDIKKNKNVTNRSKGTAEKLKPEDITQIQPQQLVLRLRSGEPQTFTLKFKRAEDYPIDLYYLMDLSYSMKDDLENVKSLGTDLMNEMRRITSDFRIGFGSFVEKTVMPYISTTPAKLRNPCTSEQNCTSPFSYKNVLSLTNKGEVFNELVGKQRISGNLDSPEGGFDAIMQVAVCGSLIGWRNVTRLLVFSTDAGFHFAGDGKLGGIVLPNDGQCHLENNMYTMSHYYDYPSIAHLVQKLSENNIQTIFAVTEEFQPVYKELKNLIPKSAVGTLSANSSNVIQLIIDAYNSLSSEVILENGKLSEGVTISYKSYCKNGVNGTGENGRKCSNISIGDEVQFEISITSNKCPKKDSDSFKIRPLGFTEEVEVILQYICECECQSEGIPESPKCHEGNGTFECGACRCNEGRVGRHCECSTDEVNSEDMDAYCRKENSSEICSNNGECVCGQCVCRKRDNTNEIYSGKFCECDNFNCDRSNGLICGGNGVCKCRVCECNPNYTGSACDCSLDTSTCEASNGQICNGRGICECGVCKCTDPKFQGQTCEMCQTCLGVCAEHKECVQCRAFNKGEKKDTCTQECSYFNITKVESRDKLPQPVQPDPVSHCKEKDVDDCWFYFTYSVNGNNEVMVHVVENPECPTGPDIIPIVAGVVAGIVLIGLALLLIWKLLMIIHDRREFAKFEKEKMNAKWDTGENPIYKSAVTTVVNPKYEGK

B1: recombinant fibronectin fragment H-296 (other, human, UniProt P02751 1812-2082, looked up)
chain: AIPAPTDLKFTQVTPTSLSAQWTPPNVQLTGYRVRVTPKEKTGPMKEINLAPDSSSVVVSGLMVATKYEVSVYALKDTLTSRPAQGVVTTLENVSPPRRARVTDATETTITISWRTKTETITGFQVDAVPANGQTPIQRTIKPDVRSYTITGLQPGTDYKIYLYTLNDNARSSPVVIDASTAIDAPSNLRFLATTPNSLLVSWQPPRARITGYIIKYEKPGSPPREVVPRPRPGVTEATITGLEPGTEYTIYVIALKNNQKSEPLIGRKKTDELPQLVTLPHPNLHGPEILDVPST
notes: Expressed in E. coli
Q: Does B1 bind [1]?
A: binds

B2: recombinant fibronectin fragment H-271 (other, human, UniProt P02751 1812-2082, looked up)
chain: AIPAPTDLKFTQVTPTSLSAQWTPPNVQLTGYRVRVTPKEKTGPMKEINLAPDSSSVVVSGLMVATKYEVSVYALKDTLTSRPAQGVVTTLENVSPPRRARVTDATETTITISWRTKTETITGFQVDAVPANGQTPIQRTIKPDVRSYTITGLQPGTDYKIYLYTLNDNARSSPVVIDASTAIDAPSNLRFLATTPNSLLVSWQPPRARITGYIIKYEKPGSPPREVVPRPRPGVTEATITGLEPGTEYTIYVIALKNNQKSEPLIGRKKT
Q: Does B2 bind [2]?
A: no binding (tested: 2 µg/cm^2 coating)
